The values that follow come from patent US20230192860A1 (Bristol-Myers Squibb, published 2023).

Positions count from the first letter of the chain named. Names may count otherwise.

Assay [1] has as its target T1, hVISTA-ECD 6-His tag (human, UniProt Q9H7M9 33-193).
T1 construct: also called monovalent hVISTA-ECD; human VISTA
Description: SPR 37 C, Ab on Protein A, pH 6.0.

Assay [2] concerns the target T1, hVISTA-ECD 6-His tag. The assay can be described thus: SPR 37 C, Ab on Protein A, pH 7.4.
The target of assay [3] is T2, monovalent hVISTA-ECD with polyhistidine tail (SEQ ID NO: 325) (human, UniProt Q9H7M9 33-193).
T2 construct: also called hVISTA-ECD 6-His tag; human VISTA
T2 sequence (Q9H7M9 other isoform, or with tags, fused parts or gaps limits assumed): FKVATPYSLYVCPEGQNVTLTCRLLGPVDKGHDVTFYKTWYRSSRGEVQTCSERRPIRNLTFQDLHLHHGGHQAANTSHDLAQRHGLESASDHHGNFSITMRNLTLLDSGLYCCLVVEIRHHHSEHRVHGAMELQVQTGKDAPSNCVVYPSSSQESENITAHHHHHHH
Description: SPR, mAb captured on Protein A chip, hVISTA injected, PBST pH 6.0, 37 C. On the technique in general: Surface plasmon resonance follows binding to a sensor surface in real time, without labels.

The target in assay [4] is T2, monovalent hVISTA-ECD with …. The assay can be described thus: SPR, mAb captured on Protein A chip, hVISTA injected, PBST pH 7.4, 37 C.

T1 sequence (Q9H7M9 other isoform, or with tags, fused parts or gaps limits assumed): as above

B1: P1-077837 (P1-068744 H50I) (antibody, V domains shown)
VH: QVQLVESGGGVVQPGRSLRLSCAASGFTFSEYAMHWVRQAPGKGLEWVAIIWYDGSNKYEADSVKGRFTISRDNSKNTLYLQMNSLRAEDTAVYYCARDSGFYESYYFDEWGQGTLVTVSS
VL: EIVLTQSPATLSLSPGERATLSCRASQSVSSSYLAWYQQKPGQAPRLLIYDASNRATGIPARFSGSGSGTDFTLTISSLEPEDFATYYCQQYNSYPYTFGQGTKLEIK
As usually defined, the Kd is the equilibrium constant for the complex coming apart. For orientation: koff means the first-order rate constant of dissociation. A word on the kon: it is the second-order rate constant of association. Read a low kon as slower complex formation. For the molecule B1, in the assay with hVISTA-ECD 6-His tag [1], the affinity, expressed as Kd, was 2.5 nM; the koff turned out to be 0.003 s⁻¹; the kon was found to be 1.2e+06 M⁻¹ s⁻¹. Further, in the assay with hVISTA-ECD 6-His tag [2], the Kd is 26 nM, the koff was 0.0033 s⁻¹ and the kon is 130000 M⁻¹ s⁻¹.

B2: P1-061015 (antibody, V domains shown)
VH: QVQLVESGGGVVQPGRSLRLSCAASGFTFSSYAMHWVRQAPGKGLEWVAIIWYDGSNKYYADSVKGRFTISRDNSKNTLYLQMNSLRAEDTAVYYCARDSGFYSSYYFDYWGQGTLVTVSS
VL: B1 VL
notes: captured on a Protein A chip; also called parental antibody
In assay [3], B2 yielded a Kd of 1.9 nM, a koff of 0.0016 s⁻¹ and a kon of 830000 M⁻¹ s⁻¹. In assay [4], this molecule showed a Kd of 6.4 nM, a koff of 0.0022 s⁻¹ and a kon of 340000 M⁻¹ s⁻¹.

B3: P1-077857 (P1-068744 E31S E100S) (antibody, V domains shown)
VH: B1 VH with E31S, I50H, E104S
VL: B1 VL
In the assay with hVISTA-ECD 6-His tag [1], B3 gave a Kd of 120 nM, a koff of 0.097 s⁻¹ and a kon of 820000 M⁻¹ s⁻¹. In the assay with hVISTA-ECD 6-His tag [2], this molecule had a Kd of 520 nM, a koff of 0.16 s⁻¹ and a kon of 300000 M⁻¹ s⁻¹.

B4: P1-077867 (P1-068748 H32Y) (antibody, V domains shown)
VH: B1 VH with E31H, K58D, Y59D, E60Y, E104D, E110Y
VL: B1 VL
notes: Reversion mutant of P1-068748 (Kabat names); captured on a Protein A chip
With B4, in assay [3], binding was put at a Kd of 2.2 nM, the koff is 0.0029 s⁻¹ and the association rate constant (kon) turned out to be 1.3e+06 M⁻¹ s⁻¹. In addition, in assay [4], the dissociation constant Kd stood at 230 nM, the koff came to 0.026 s⁻¹ and the kon turned out to be 120000 M⁻¹ s⁻¹.

B5: P1-077863 (P1-068744 E59Y E102Y) (antibody, V domains shown)
VH: B1 VH with I50H, E60Y, E110Y
VL: B1 VL
In the assay with hVISTA-ECD 6-His tag [1], B5 came in with a Kd of 130 nM, a koff of 0.017 s⁻¹ and a kon of 140000 M⁻¹ s⁻¹. In the assay with hVISTA-ECD 6-His tag [2], this molecule yielded a Kd of 1100 nM, a koff of 0.055 s⁻¹ and a kon of 63000 M⁻¹ s⁻¹.

B6: P1-077859 (P1-068744 H50I E100S) (antibody, V domains shown)
VH: B1 VH with E104S
VL: B1 VL
As for B6, in the assay with hVISTA-ECD 6-His tag [1], the Kd came to 2.3 nM, the koff was found to be 0.0032 s⁻¹ and the kon came to 1.4e+06 M⁻¹ s⁻¹. Moreover, in the assay with hVISTA-ECD 6-His tag [2], the Kd stood at 9.5 nM, the dissociation rate constant (koff) was 0.0044 s⁻¹ and the kon came out at 460000 M⁻¹ s⁻¹.

B7: P1-077847 (P1-068744 H50I E59Y) (antibody, V domains shown)
VH: B1 VH with E60Y
VL: B1 VL
B7: in the assay with hVISTA-ECD 6-His tag [1], the Kd is 2.7 nM, the koff turned out to be 0.0032 s⁻¹ and the kon came out at 1.2e+06 M⁻¹ s⁻¹. In the assay with hVISTA-ECD 6-His tag [2], this molecule had a Kd of 29 nM, a koff of 0.0035 s⁻¹ and a kon of 120000 M⁻¹ s⁻¹.

B8: P1-077877 (P1-068748 H32Y D57K) (antibody, V domains shown)
VH: B1 VH with E31H, Y59D, E60Y, E104D, E110Y
VL: B1 VL
notes: as for B4
In assay [3], B8 came in with a Kd of 2.2 nM, a koff of 0.0019 s⁻¹ and a kon of 840000 M⁻¹ s⁻¹. Also, in assay [4], binding was put at a Kd of 270 nM, the koff stood at 0.024 s⁻¹ and the kon turned out to be 88000 M⁻¹ s⁻¹.

B9: P1-077849 (P1-068744 E59Y E100S) (antibody, V domains shown)
VH: B1 VH with I50H, E60Y, E104S
VL: B1 VL
For the molecule B9, in the assay with hVISTA-ECD 6-His tag [1], binding was characterised by a dissociation constant (Kd) of 220 nM, the koff was 0.11 s⁻¹ and the kon came to 500000 M⁻¹ s⁻¹. Moreover, in the assay with hVISTA-ECD 6-His tag [2], binding was put at a Kd of 6600 nM, the koff stood at 0.35 s⁻¹ and the kon is 53000 M⁻¹ s⁻¹.

B10: P1-077873 (P1-068748 D100S) (antibody, V domains shown)
VH: B1 VH with E31H, Y32H, K58D, Y59D, E60Y, E104S, E110Y
VL: B1 VL
notes: as for B4
In assay [3], B10 returned a Kd of 0.71 nM, a koff of 0.0012 s⁻¹ and a kon of 1.8e+06 M⁻¹ s⁻¹. For the same molecule, in assay [4], the Kd is 3.6 nM, the koff is 0.003 s⁻¹ and the kon is 850000 M⁻¹ s⁻¹.

B11: P1-077869 (P1-068748 D57K) (antibody, V domains shown)
VH: B1 VH with E31H, Y32H, Y59D, E60Y, E104D, E110Y
VL: B1 VL
notes: as for B4
Consider B11, for which, in assay [3], binding was characterised by a dissociation constant (Kd) of 15 nM, the off-rate constant (koff) was found to be 0.0026 s⁻¹ and the kon was 170000 M⁻¹ s⁻¹. In assay [4], this molecule displayed a Kd of 980 nM, a koff of 0.027 s⁻¹ and a kon of 28000 M⁻¹ s⁻¹.

B12: P1-077865 (P1-068748 H31S) (antibody, V domains shown)
VH: B1 VH with E31S, Y32H, K58D, Y59D, E60Y, E104D, E110Y
VL: B1 VL
notes: as for B4
B12: in assay [3], the Kd worked out at 5.2 nM, the koff turned out to be 0.0028 s⁻¹ and the kon was found to be 540000 M⁻¹ s⁻¹. In assay [4], this molecule had a Kd of 410 nM, a koff of 0.028 s⁻¹ and a kon of 69000 M⁻¹ s⁻¹.

B13: P1-077839 (P1-068744 E59Y) (antibody, V domains shown)
VH: B1 VH with I50H, E60Y
VL: B1 VL
In the assay with hVISTA-ECD 6-His tag [1], B13 yielded a Kd of 85 nM, a koff of 0.054 s⁻¹ and a kon of 630000 M⁻¹ s⁻¹. Besides, in the assay with hVISTA-ECD 6-His tag [2], the Kd was determined as 1300 nM, the koff stood at 0.093 s⁻¹ and the kon is 71000 M⁻¹ s⁻¹.

B14: P1-077861 (P1-068744 H50I E102Y) (antibody, V domains shown)
VH: B1 VH with E110Y
VL: B1 VL
In the assay with hVISTA-ECD 6-His tag [1], B14 registered a Kd of 2.6 nM, a koff of 0.0023 s⁻¹ and a kon of 870000 M⁻¹ s⁻¹. Also, in the assay with hVISTA-ECD 6-His tag [2], the Kd was 26 nM, the koff was found to be 0.0027 s⁻¹ and the kon was found to be 100000 M⁻¹ s⁻¹.

B15: P1-077855 (P1-068744 E31S E59Y) (antibody, V domains shown)
VH: B1 VH with E31S, I50H, E60Y
VL: B1 VL
In the assay with hVISTA-ECD 6-His tag [1], B15 came in with a Kd of 36 nM, a koff of 0.0077 s⁻¹ and a kon of 210000 M⁻¹ s⁻¹. Moreover, in the assay with hVISTA-ECD 6-His tag [2], the Kd is 5200 nM, the koff stood at 0.061 s⁻¹ and the kon is 12000 M⁻¹ s⁻¹.

B16: P1-077851 (P1-068744 E100S E102Y) (antibody, V domains shown)
VH: B1 VH with I50H, E104S, E110Y
VL: B1 VL
In the assay with hVISTA-ECD 6-His tag [1], B16 displayed a Kd of 220 nM, a koff of 0.085 s⁻¹ and an association rate constant (kon) of 380000 M⁻¹ s⁻¹. In the assay with hVISTA-ECD 6-His tag [2], this molecule yielded a Kd of 2200 nM, a koff of 0.3 s⁻¹ and a kon of 150000 M⁻¹ s⁻¹.

B17: P1-077843 (P1-068744 E102Y) (antibody, V domains shown)
VH: B1 VH with I50H, E110Y
VL: B1 VL
In the assay with hVISTA-ECD 6-His tag [1], B17 yielded a Kd of 33 nM, a koff of 0.0048 s⁻¹ and a kon of 150000 M⁻¹ s⁻¹. In the assay with hVISTA-ECD 6-His tag [2], this molecule came in with a Kd of 2000 nM, a koff of 0.034 s⁻¹ and a kon of 18000 M⁻¹ s⁻¹.

B18: P1-068748 (antibody, V domains shown)
VH: B1 VH with E31H, Y32H, K58D, Y59D, E60Y, E104D, E110Y
VL: B1 VL
notes: captured on a Protein A chip
Regarding B18, in assay [3], the Kd was found to be 11 nM, the koff turned out to be 0.0035 s⁻¹ and the on-rate (kon) turned out to be 310000 M⁻¹ s⁻¹. In assay [4], this molecule had a Kd of 600 nM, a koff of 0.032 s⁻¹ and a kon of 54000 M⁻¹ s⁻¹.

B19: P1-077841 (P1-068744 E100S) (antibody, V domains shown)
VH: B1 VH with I50H, E104S
VL: B1 VL
On to B19, for which, in the assay with hVISTA-ECD 6-His tag [1], the Kd is 200 nM, the koff was determined as 0.11 s⁻¹ and the kon stood at 520000 M⁻¹ s⁻¹. In the assay with hVISTA-ECD 6-His tag [2], this molecule gave a Kd of 910 nM, a koff of 0.3 s⁻¹ and a kon of 330000 M⁻¹ s⁻¹.

B20: P1-077845 (P1-068744 E31S H50I) (antibody, V domains shown)
VH: B1 VH with E31S
VL: B1 VL
In the assay with hVISTA-ECD 6-His tag [1], B20 came in with a Kd of 1.7 nM, a koff of 0.002 s⁻¹ and a kon of 1.2e+06 M⁻¹ s⁻¹. Further, in the assay with hVISTA-ECD 6-His tag [2], the Kd stood at 14 nM, the koff amounted to 0.0038 s⁻¹ and the kon was 280000 M⁻¹ s⁻¹.

B21: P1-077875 (P1-068748 H31S H32Y) (antibody, V domains shown)
VH: B1 VH with E31S, K58D, Y59D, E60Y, E104D, E110Y
VL: B1 VL
notes: as for B4
For the molecule B21, in assay [3], the dissociation constant (Kd) came out at 0.94 nM, the koff turned out to be 0.0018 s⁻¹ and the kon was 1.9e+06 M⁻¹ s⁻¹. In assay [4], this molecule showed a Kd of 130 nM, a koff of 0.021 s⁻¹ and a kon of 160000 M⁻¹ s⁻¹.

B22: P1-077853 (P1-068744 E31S E102Y) (antibody, V domains shown)
VH: B1 VH with E31S, I50H, E110Y
VL: B1 VL
Take B22: in the assay with hVISTA-ECD 6-His tag [1], the Kd was 18 nM, the koff was 0.0019 s⁻¹ and the kon turned out to be 110000 M⁻¹ s⁻¹. Also, in the assay with hVISTA-ECD 6-His tag [2], binding was characterised by a dissociation constant (Kd) of 1200 nM, the koff came to 0.024 s⁻¹ and the kon was 21000 M⁻¹ s⁻¹.
